Assay results reported in paper PMC9828152.

Target: Sp1 (specific protein 1) (UniProt P08047)
Experiment: anti-Flag co-IP, Sp1 blot
Conditions: reference: Ets1 WT-Flag; sites Y283

Ets1 (human E26 transcription factor 1) (from UniProt P14921) Ets1 Y283F-Flag
binding against the reference: weaker
